Experimental findings from patent publication US20110182904A1 (published 2011) are described below.

Where a chain is given by its changes, count along the chain named. Where no end group is shown, it is not given here.

B1: 11F2 human monoclonal antibody (antibody, V domains shown)
VH: QVQLQESGPGLVKPSETLSLTCTVSGDSIRSYYWSWIRQPPGKGLEWIGYIYYRGSTHYNPSLKSRVTISVDTSKNQFSLKMSSVTAADTAVYYCARICSSISCWGWFDPWGQGTLVTVSS
VL: not shown
notes: Human IgG from a HuMAb/KM mouse hybridoma
B2: 1F6 human monoclonal antibody (antibody, V domains shown)
VH: B1 VH with R30S, R54S, H58R, S62P, M82L, I102T
VL: not shown
notes: as for B1
B3: 12E3 human monoclonal antibody (antibody, V domains shown)
VH: QVQLVESGGGVVQPGRSLRLSCAASGFTFSSYGMHWVRQAPGKGLEWVAVIWDDGRKKYYADSVKGRFTISRDNSKNTLYLQMNSLRAEDTAVYYCAREPAGVWGMDVWGQGTTVTVSS
VL: DIQMTQSPSSLSASVGDRVTITCRASQGISSWLAWYQQKPEKAPKSLIYAASSLQSGVPSRFSGSGSGTDFTLTISSLQPEDFATYYCQQYNSYPLTFGGGTKVEIK
notes: as for B1
B4: 16B7 human monoclonal antibody (antibody, V domains shown)
VH: QVQLVESGGGVVQPGRSLRLSCAASGFTFSNYGIHWVRQAPGKGLEWVAVIWYDGSHKYYADSMKGRFTISRDNSKNTLDLQMNSLRAEDTAVYYCARGSSSWYFDLWGRGTLVTVSS
VL: B3 VL
notes: as for B1
B5: 10F6 human monoclonal antibody (antibody, V domains shown)
VH: B4 VH with S30R, N31S, M64V, A97V, S102N, L107Y, R110Q
VL: B3 VL
notes: as for B1
B6: 8B3 human monoclonal antibody (antibody, V domains shown)
VH: QVQLVQSGAEVKKPGSSVKVSCKASGGTFSSYAISWVRQAPGQGLEWMGRIIPILGIAQYAQKFQGRVTLTADKSTSTAYMELSSLRSEDTAVYYCARGKDIWGQGTMVTVSS
VL: not shown
notes: as for B1
B7: 7D6 human monoclonal antibody (antibody, V domains shown)
VH: B6 VH with A58V, Q59N, L70I
VL: EIVLTQSPGTLSLSPGERATLSCRASQIVISTYLAWYQQKPGQAPRLLIYGASSRATGIPDRFSGSGSGTDFTLTISRLEPEDFAVYYCQQYGSSPCTFGQGTKLEIK
notes: as for B1
B8: 33F7 human monoclonal antibody (antibody, V domains shown)
VH: B6 VH with S35N, I51L, Q59N, L70I
VL: B7 VL with A19V, I28S, I30S, T32N, Y50K
notes: as for B1
B9: 15F3 human monoclonal antibody (antibody, V domains shown)
VH: B6 VH with S77N
VL: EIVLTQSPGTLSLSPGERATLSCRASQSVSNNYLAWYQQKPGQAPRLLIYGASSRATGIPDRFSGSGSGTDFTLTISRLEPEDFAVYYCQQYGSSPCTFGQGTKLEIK
notes: as for B1
B10: 6H4 human monoclonal antibody (antibody, V domains shown)
VH: QVHLQQWGAGLLKPSETLSLTCAVYGGSFSGYYWSWIRQPPGKGLEWIGEINHSGSTNYNPSLKSRVTISVDTSKNQFSLKLSSVTAADTAVYYCAREYYYGSESEYFQHWGQGTLVTVSS
VL: EIVLTQSPATLSLSPGERATLSCRASQSVSSYLAWYQQKPGQAPRLLIYDASNRATGIPARFSGSGSGTDFTLTISSLEPEDFAVYYCQQRSNWPHTFGQGTKLEIK
notes: as for B1

The target in one experiment is T1, human bone morphogenic protein 2 (BMP2) (human, UniProt P12643 283-396, Disulfide-linked homodimer of this chain (non-reduced band of about 36 kDa, monomers of 17-18 kDa); one copy is given.). Briefly: cell-based or functional assay.
T1 sequence (P12643 283-396 limits assumed): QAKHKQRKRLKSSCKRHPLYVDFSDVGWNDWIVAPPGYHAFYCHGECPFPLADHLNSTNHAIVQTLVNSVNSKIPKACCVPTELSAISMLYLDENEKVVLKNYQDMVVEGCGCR
On to B1, for which the “IC50 (read off the curve)” value is about 3 µg/mL.

In another experiment the target is T2, human bone morphogenic protein 4 (BMP4) (human, UniProt P12644 293-408).
T2 sequence: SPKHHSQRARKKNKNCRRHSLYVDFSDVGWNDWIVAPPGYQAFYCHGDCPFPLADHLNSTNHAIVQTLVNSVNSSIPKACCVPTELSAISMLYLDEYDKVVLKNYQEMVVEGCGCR
Briefly: cell-based or functional assay.
Consider B1, for which the “IC50 (read off the curve)” value is about 3 µg/mL.

For the next experiment, the target named is T1, human bone morphogenic protein 2 (BMP2). Briefly: SPR (Biacore); mAb captured via anti-human Fc, BMP flowed at 10 nM. How it is done:
(§1) The antigen-antibody association kinetics was followed for 2 minutes and the dissociation kinetics was followed for 8 minutes. The association and dissociation curves were fit to a 1:1 Langmuir binding model using BIAevaluation software (Biacore, AB).
Background: SPR reads the build-up and loss of mass on a sensor chip optically.
Take B2: the affinity, expressed as Kd, was 0.02 nM; the koff (in general, a measure of how fast the partners let go of each other) was 8.49e-05 s⁻¹; the kon (usually a measure of how fast the partners come together) was found to be 4.65e+06 M⁻¹ s⁻¹.

On to B1, for which the Kd – broadly, the concentration at which binding is half-saturated – amounted to 0.01 nM; the off-rate constant (koff) worked out at 3.09e-05 s⁻¹; the on-rate constant (kon) turned out to be 2.83e+06 M⁻¹ s⁻¹.

On to B3, for which the Kd amounted to 0.02 nM, the koff amounted to 8.26e-05 s⁻¹ and the kon is 3.39e+06 M⁻¹ s⁻¹.

In turn, B4 yielded a Kd of 0.08 nM, a koff of 0.000282 s⁻¹ and an on-rate (kon) of 3.7e+06 M⁻¹ s⁻¹.

Take B5: the Kd was determined as 0.19 nM, the koff amounted to 0.000385 s⁻¹ and the kon amounted to 2.04e+06 M⁻¹ s⁻¹.

With B6, the Kd came to 0.19 nM, the koff is 0.000582 s⁻¹ and the kon worked out at 3.02e+06 M⁻¹ s⁻¹.

B7 registered a Kd of 0.28 nM, a koff of 0.00114 s⁻¹ and a kon of 4e+06 M⁻¹ s⁻¹.

In turn, B8 yielded a Kd of 0.12 nM, a koff of 0.000654 s⁻¹ and a kon of 5.71e+06 M⁻¹ s⁻¹.

The molecule B9 displayed a dissociation constant Kd of 0.03 nM, a koff of 0.00027 s⁻¹ and a kon of 7.96e+06 M⁻¹ s⁻¹.

Molecule B10 yielded a Kd of 0.1 nM, a koff of 0.000198 s⁻¹ and an association rate constant (kon) of 1.42e+06 M⁻¹ s⁻¹.

For another experiment, the target named is T2, human bone morphogenic protein 4 (BMP4). The description is as above. The protocol:
as §1
B2: the Kd worked out at 0.0003 nM, the koff turned out to be 1.27e-06 s⁻¹ and the association rate constant (kon) was 4.97e+06 M⁻¹ s⁻¹.

B1 displayed a dissociation constant (Kd) of 0.0007 nM, a koff of 3.04e-08 s⁻¹ and a kon of 45300 M⁻¹ s⁻¹.

On to B3, for which binding was characterised by a dissociation constant (Kd) of 0.28 nM, the koff is 0.000482 s⁻¹ and the kon was 1.75e+06 M⁻¹ s⁻¹.

In turn, B4 came in with a Kd of 0.02 nM, a koff of 6.12e-05 s⁻¹ and an on-rate constant (kon) of 2.86e+06 M⁻¹ s⁻¹.

As for B5, the Kd worked out at 0.75 nM, the koff came out at 0.00197 s⁻¹ and the kon worked out at 2.61e+06 M⁻¹ s⁻¹.

In turn, B6 displayed a Kd of 0.18 nM, a koff of 0.000827 s⁻¹ and a kon of 4.69e+06 M⁻¹ s⁻¹.

The molecule B7 displayed a Kd of 0.42 nM, a koff of 0.0012 s⁻¹ and a kon of 2.84e+06 M⁻¹ s⁻¹.

In the case of B8, binding was characterised by a dissociation constant (Kd) of 0.38 nM, the koff stood at 0.0014 s⁻¹ and the on-rate (kon) came to 3.65e+06 M⁻¹ s⁻¹.

For the molecule B9, the Kd turned out to be 0.18 nM, the koff came out at 0.00056 s⁻¹ and the kon turned out to be 3.14e+06 M⁻¹ s⁻¹.

On to B10, for which the Kd worked out at 0.3 nM, the koff amounted to 0.000497 s⁻¹ and the kon amounted to 2e+06 M⁻¹ s⁻¹.

In another experiment the target is T3, BMP2 epitope peptide ISMLYLDENEKVVLK (SEQ ID NO:92) (human, also: biotin conjugated, site not given here).
T3 construct: Biotinylated peptide captured on a streptavidin chip
T3 peptide: ISMLYLDENEKVVLK
Briefly: SPR (Biacore); biotinylated peptide on streptavidin chip, antibody at 40 ug/ml.
Take B6: the binding result is “binds”.

Regarding B7, the binding result is “binds”.

For another experiment, the target named is T4, BMP2 epitope peptide QAKHKQRKRLKSSCKRH (SEQ ID NO:93) (human, also: biotin conjugated, site not given here).
T4 construct: Biotinylated peptide captured on a streptavidin chip
T4 peptide: QAKHKQRKRLKSSCKRH
Described as above.
For B1, the binding result is listed as “binds”.

On to B3, for which the binding result is given as “binds”.

On to B4, for which the binding result was “binds”.

Another experiment addresses T2, human bone morphogenic protein 4 (BMP4). Nature of the experiment: Biacore competition: mAb (two-fold series from 400 nM) pre-incubated with BMP4 (3-10 nM), mixture injected over immobilised type II BMP receptor; response = BMP4 binding to the receptor. How it is done:
Both type-I and type-II BMP receptors were covalently linked to a CM5 chip (carboxy methyl dextran coated chip) via primary amines, using the standard amine coupling chemistry and kit provided by Biacore. Mixtures of antibody-antigen complex were flowed across the immobilized receptors. […] Antibody-antigen mixtures were injected at a flow rate of 5 μl/min for 3 minutes.
Turning to B3, the “IC50 (read off the curve)” value was about 20 nM.

Take B8: the “IC50 (read off the curve)” value is about 100 nM.
